Measured values: patent publication US20180271998A1 (MERRIMACK PHARMACEUTICALS, published 2018)
Changes are numbered by the printed parent chain. Numbers in names are those of the source.

B1: anti-EphA2 Fab 12 (IgG1 G44C, C233S heavy chain; lambda G100C, C214S light chain), Fab-PEG-DSPE conjugate (Fab, V domains shown)
VH: QVQLVQSGGGLVQPGGSLRLSCAASGFTFSSYAMHWVRQAPGKCLEWVTVISPDGHNTYYADSVKGRFTISRDNSKNTLYLQMNSLRAEDTAVYYCARASVGATGPFDIWGQGTLVTVSS
VL: SSELTQPPSVSVAPGQTVTITCQGDSLRSYYASWYQQKPGTAPKLLIYGENNRPSGVPDRFSGSSSGTSASLTITGAQAEDEADYYCNSRDSSGTHLTVFGCGTKLTVLG
modifications: mal-PEG(2000)-DSPE linker conjugated to the C-terminal cysteine of the heavy chain (Cys in DKTHTCAA)
B2: anti-EphA2 Fab 17 (IgG1 G44L, F174C, C233S heavy chain; lambda G100L, S176C, C214S light chain), Fab-PEG-DSPE conjugate (Fab, V domains shown)
VH: B1 VH with C44L
VL: B1 VL with C102L
modifications: mal-PEG(2000)-DSPE linker conjugated to the C-terminal cysteine of the heavy chain (Cys in DKTHTCAA)
B3: anti-EphA2 Fab 14 (IgG1 G44C, F174C, C233S heavy chain; lambda G100C, S176C, C214S light chain), Fab-PEG-DSPE conjugate (Fab, V domains shown)
VH: B1 VH
VL: B1 VL
modifications: mal-PEG(2000)-DSPE linker conjugated to the C-terminal cysteine of the heavy chain (Cys in DKTHTCAA)
B4: anti-EphA2 Fab 13 (IgG1 F174C, C233S heavy chain; lambda S176C, C214S light chain), Fab-PEG-DSPE conjugate (Fab, V domains shown)
VH: B1 VH with C44G
VL: B1 VL with C102G
modifications: mal-PEG(2000)-DSPE linker conjugated to the C-terminal cysteine of the heavy chain (Cys in DKTHTCAA)
B5: anti-EphA2 Fab 15 (IgG1 H172E, F174C, C233S heavy chain; lambda T162D, S176C, C214S light chain), Fab-PEG-DSPE conjugate (Fab, V domains shown)
VH: B1 VH with C44G
VL: B1 VL with C102G
modifications: mal-PEG(2000)-DSPE linker conjugated to the C-terminal cysteine of the heavy chain (Cys in DKTHTCAA)
B6: anti-EphA2 Fab 19 (IgG1 G44L, H172F, F174C, C233S heavy chain; lambda G100L, T162L, S174V, S176C, C214S light chain), Fab-PEG-DSPE conjugate (Fab, V domains shown)
VH: B1 VH with C44L
VL: B1 VL with C102L
modifications: mal-PEG(2000)-DSPE linker conjugated to the C-terminal cysteine of the heavy chain (Cys in DKTHTCAA)
B7: anti-EphA2 Fab 18 (IgG1 G44L, H172E, F174C, C233S heavy chain; lambda G100L, T162D, S176C, C214S light chain), Fab-PEG-DSPE conjugate (Fab, V domains shown)
VH: B1 VH with C44L
VL: B1 VL with C102L
modifications: mal-PEG(2000)-DSPE linker conjugated to the C-terminal cysteine of the heavy chain (Cys in DKTHTCAA)
B8: anti-EphA2 Fab 16 (IgG1 H172F, F174C, C233S heavy chain; lambda T162L, S174V, S176C, C214S light chain), Fab-PEG-DSPE conjugate (Fab, V domains shown)
VH: B1 VH with C44G
VL: B1 VL with C102G
modifications: mal-PEG(2000)-DSPE linker conjugated to the C-terminal cysteine of the heavy chain (Cys in DKTHTCAA)

Target: T1, Recombinant, Human EphA2 with C-terminal hexahistidine appended (human, UniProt P29317 25-534)
T1 construct: Captured on anti-His5 sensors; also called his-tagged recombinant, human EphA
T1 sequence (P29317 other isoform, or with tags, fused parts or gaps limits assumed): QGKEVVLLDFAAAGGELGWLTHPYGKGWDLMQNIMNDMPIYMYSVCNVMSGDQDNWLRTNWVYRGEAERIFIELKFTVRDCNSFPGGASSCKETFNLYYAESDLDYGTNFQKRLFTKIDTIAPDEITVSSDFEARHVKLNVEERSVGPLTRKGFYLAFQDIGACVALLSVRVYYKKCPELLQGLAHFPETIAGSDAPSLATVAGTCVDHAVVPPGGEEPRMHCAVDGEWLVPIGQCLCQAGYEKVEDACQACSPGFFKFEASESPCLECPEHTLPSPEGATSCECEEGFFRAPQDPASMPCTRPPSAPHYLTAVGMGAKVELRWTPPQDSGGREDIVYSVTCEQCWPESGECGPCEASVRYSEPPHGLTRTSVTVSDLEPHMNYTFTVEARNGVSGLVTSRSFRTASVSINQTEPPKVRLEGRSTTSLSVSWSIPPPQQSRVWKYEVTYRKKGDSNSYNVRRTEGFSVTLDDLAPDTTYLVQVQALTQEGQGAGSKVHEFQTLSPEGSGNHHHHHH
Assay: BLI (Octet Red96), EphA2-His on anti-His5 sensors, liposomes with inserted conjugate
Procedure: (§1) The purified liposomes were assayed for EphA2 binding strength by FortéBIO® Octet® Red96 system (Pall) in PBS at 25 μM liposome phospholipid using anti-His5 sensors coated with recombinant human EphA2 with C-terminal hexahistidine (SEQ ID NO:47). The slope of the association curve from 3-20 sec was determined and compared to the slope observed for liposomes with inserted conjugate of the wild type Fab.

Binder | EphA2 binding strength compared to control liposomes [%]
B1 | > 80
B2 | > 80
B3 | > 80
B4 | > 80
B5 | > 80
B6 | > 80
B7 | > 80
B8 | > 80

Target: T1, Recombinant, Human EphA2 with …
Assay: BLI (Octet Red 96), EphA2-His on anti-His5 sensors, 4 ug/ml Fab-PEG-DSPE conjugate, slope of association curve 2-10 s relative to Fab 11 conjugate
Procedure: (§2) The Fab-PEG-DSPE conjugates were assayed for EphA2 binding strength using the FortéBIO® Octet® Red 96 system (Pall Corporation) to determine whether conjugation or engineering of the Fab affected binding activity. […] Anti-His5 sensors were first coated with his-tagged recombinant, human EphA (SEQ ID NO:47) at a concentration of 10 μg/ml protein in PBS. The sensors were then incubated in 4 μg/ml of Fab-PEG-DSPE conjugate in PBS. The slope of an association curve between 2-10 seconds was determined and compared across the variants and to the reference conjugate, Fab 11-PEG-PE, which is the anti-EphA2 antibody with wild-type disulfide pairing.

Binder | Binding strength, % of wild type conjugate
B1 | 108 % of wild type conjugate
B2 | 89.7 % of wild type conjugate
B3 | 105 % of wild type conjugate
B4 | 96.9 % of wild type conjugate
B5 | 86 % of wild type conjugate
B6 | 96.8 % of wild type conjugate
B7 | 75.5 % of wild type conjugate
B8 | 85 % of wild type conjugate

Target: T1, Recombinant, Human EphA2 with …
Assay: BLI (Octet Red96), EphA2-His on anti-His5 sensors, doxorubicin liposomes with inserted Fab-PEG-DSPE conjugate at 25 uM phospholipid, slope of association curve 3-20 s relative to Fab 11 liposomes
Procedure: as §1

Binder | Fab-liposome binding strength, % of control
B1 | 109 % of control
B2 | 102 % of control
B3 | 120 % of control
B4 | 96.5 % of control
B5 | 102 % of control
B6 | 83.3 % of control
B7 | 99.6 % of control
B8 | 89.3 % of control

Target: T1, Recombinant, Human EphA2 with …
Assay: BLI (Octet Red 96), EphA2-His on anti-His5 sensors, Fab-PEG-DSPE conjugate
Procedure: as §2

Binder | binding strength compared to wild-type protein conjugate [%]
B1 | 75
B2 | 75
B3 | 75
B4 | 75
B5 | 75
B6 | 75
B7 | 75
B8 | 75
